Values of other authors as cited in patent US20190010499.

System: IL-6
Settings: binding constant used for modeling; measurement method not stated; nucleic acid type not stated; cited from earlier work

Substance | Kd [nM]
Anti-IL-6 aptamer #2 (SL1032) | 1.6
Anti-IL-6 aptamer #1 (SL1025) | 0.233
